In publication doi:10.1101/2023.02.22.529570 (bioRxiv, 2023):

Target: T1, His-NEON-EBP50 PDZ1PDZ2 (human, UniProt O14745-1 1-298)
T1 sequence: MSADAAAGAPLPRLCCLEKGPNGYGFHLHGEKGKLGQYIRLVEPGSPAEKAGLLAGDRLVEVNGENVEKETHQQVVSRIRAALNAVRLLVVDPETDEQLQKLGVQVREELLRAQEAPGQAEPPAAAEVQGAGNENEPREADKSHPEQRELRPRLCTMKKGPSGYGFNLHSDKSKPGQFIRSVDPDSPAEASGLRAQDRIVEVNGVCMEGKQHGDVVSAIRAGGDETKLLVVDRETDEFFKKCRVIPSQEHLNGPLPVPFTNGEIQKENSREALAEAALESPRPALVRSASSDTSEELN
Test: pull-down

B1: GST-CDHR5 CD (domain or fragment)
chain: RLKCCCGKAPEPQPQGFDNQAFLPDHKANWAPVPSPTHDPKPAEAPMPAEPAPPGPASPGGAPEPPAAARAGGSPTAVRSILTKERRPEGGYKAVWFGEDIGTEADVVVLNAPTLDVDGASDSGSGDEGEGAGRGGGPYDAPGGDDSYI
- binding result: binds
